# Test results as given in publication doi:10.1101/2023.12.01.569227 (bioRxiv, 2023).
# Numbering of substitutions follows the chain as printed.
# B1: VHH-72 (VHH)
# VHH: QVQLQESGGGLVQAGGSLRLSCAASGRTFSEYAMGWFRQAPGKEREFVATISWSGGSTYYTDSVKGRFTISRDNAKNTVYLQMNSLKPDDTAVYYCAAAGLGTVVSEWDYDYDYWGQGTQVTVSS
# B2: Seq8 (VHH)
# VHH: B1 VHH with R27Y, T28G, G56R, A98R, L101W, T103V
# B3: Seq5 (VHH)
# VHH: B1 VHH with T28M, G56K, S57G, A98R, L101F, T103V, V104Y
# B4: Seq7 (VHH)
# VHH: B1 VHH with R27L, T28K, Y32T, G56R, A98R, L101Y, T103V
# B5: Seq3 (VHH)
# VHH: B1 VHH with T28M, Y32T, G56R, S57G, A98G, L101Y, T103V, V104Y
# B6: Seq11 (VHH)
# VHH: B1 VHH with T28K, G56R, S57L, A98G, L101Y, T103V
# B7: Seq4 (VHH)
# VHH: B1 VHH with T28S, G56R, S57A, A98R, L101Y, T103V
# B8: Seq6 (VHH)
# VHH: B1 VHH with T28L, G56R, A98K, L101W, T103V
# B9: Seq2 (VHH)
# VHH: B1 VHH with T28G, S57G, A98R, L101F, T103V, V104W
# B10: Seq1 (VHH)
# VHH: B1 VHH with Y32T, G56R, S57G, A98Y, L101Y, T103V
# Molecular target: SARS-CoV-2 RBD (SARS-CoV-2, Wuhan-Hu-1, UniProt P0DTC2, biotinylated with an EZ-Link NHS-PEG4 biotinylation kit)
# Assay: BLI
row,Binder,fold weaker binding than to SARS-CoV-1 RBD [fold]
1,B1,> 5

# Molecular target: SARS-CoV-1 RBD (SARS-CoV-1 (SARS-CoV), Urbani, UniProt P59594, biotinylated with an EZ-Link NHS-PEG4 biotinylation kit)
# Assay: BLI
row,Binder,binding result
1,B1,binds
2,B2,binds
3,B3,binds
4,B4,binds
5,B5,binds
6,B6,binds
7,B7,binds
8,B8,binds
9,B9,binds
10,B10,binds
